The values below come from patent US20040248196A1 (COMMONWEALTH SCIENTIFIC AND INDUSTRIAL RESEARCH ORGANISATION, published 2004).

For experiment [1], the target named is T1, M 2-EGFR (wild-type N-terminus FLAG-tagged EGF receptor) (human, UniProt P00533 25-1210).
T1 construct: whole, on cells; Stably expressed on BaF/3 cells; also called wt EGFR; wild type EGFR; not shown: N-terminal FLAG tag
The experiment can be described thus: Scatchard plot (B/F specific against Bound) of 125I-EGF binding to BaF/3 cells expressing wt EGFR, cold ligand titration, fitted with Radlig; first (high affinity) of two sites.

Experiment [2] addresses T1, M 2-EGFR (wild-type N-terminus …). In words: Scatchard plot (B/F specific against Bound) of 125I-EGF binding to BaF/3 cells expressing wt EGFR, cold ligand titration, fitted with Radlig; second (low affinity) of two sites.
The target in experiment [3] is T2, M 2-EGFR E 21A (human, UniProt P00533 25-1210).
T2 construct: whole, on cells; Transiently expressed in 293 cells and stably expressed in BaF/3 cells; also called Glu 21Ala; not shown: N-terminal FLAG tag
The experiment can be described thus: Scatchard plot (B/F specific against Bound) of 125I-EGF binding to BaF/3 cells expressing E21A EGFR, cold ligand titration, fitted with Radlig; first (high affinity) of two sites. Here is the method: This was determined in total cell lysates by sequential immunoblotting with anti-phosphotyrosine (top) or anti-EGFR (bottom) antibodies. […] Cross-linking of the EGFR via the extracellular portion was performed at 37° C. to maximize dimer yield. Samples were analyzed by SDS-PAGE on 3-8% gradient gels and immunoblotting with anti-EGFR antibodies.
The isolation and characterisation of stably transfected cell lines expressing wild-type and mutant EGFRs was performed using the II3-dependent murine hemopoietic lineage BaF/3 (Walker et al, 1998, Growth Factors 16, 53-67). Expression vectors containing the appropriate EGFR constructs were transfected individually by electroporation using a Gene Pulser (BioRad) according to manufacturer's instructions. Neomycin-resistant pools were generated by selection in G 418, and cloned by limiting dilution to obtain stable cell lines.

Experiment [4] addresses T2, M 2-EGFR E 21A. The experiment can be described thus: Scatchard plot (B/F specific against Bound) of 125I-EGF binding to BaF/3 cells expressing E21A EGFR, cold ligand titration, fitted with Radlig; second (low affinity) of two sites.

B1: iodinated murine EGF (ligand, UniProt P01132 977-1029, looked up)
chain: NSYPGCPSSYDGYCLNGGVCMHIESLDSYTCNCVIGYSGDRCQTRDLRWWELR
modifications: 125I-iodinated (site not stated)
notes: mature; Unlabelled EGF was used for the cold titration
Broadly, the Kd is the constant that tells how readily two partners part at equilibrium. A high value points to lower affinity. With B1, the Kd in experiment [1] was 0.039 nM; in experiment [2], 1.1 nM; with M 2-EGFR E 21A [3], 0.045 nM; with M 2-EGFR E 21A [4] it was 1.1 nM.
